Source: IntAct's records for PubMed 22124327

Biological target: otub1_human OTUB1 (UniProt Q96FW1)
Sequence (Q96FW1 whole entry): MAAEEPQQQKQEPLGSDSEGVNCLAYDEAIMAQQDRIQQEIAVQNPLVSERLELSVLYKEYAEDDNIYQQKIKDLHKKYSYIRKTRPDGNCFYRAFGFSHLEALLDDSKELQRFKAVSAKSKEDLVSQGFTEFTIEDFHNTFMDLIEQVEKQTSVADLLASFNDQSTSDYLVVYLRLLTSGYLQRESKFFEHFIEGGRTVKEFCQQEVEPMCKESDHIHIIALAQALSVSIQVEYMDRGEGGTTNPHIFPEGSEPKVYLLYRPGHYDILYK

Sequence of Ubiquitin-conjugating enzyme E2 D1 (Homo sapiens), P51668 D87A (P51668 whole entry D87A): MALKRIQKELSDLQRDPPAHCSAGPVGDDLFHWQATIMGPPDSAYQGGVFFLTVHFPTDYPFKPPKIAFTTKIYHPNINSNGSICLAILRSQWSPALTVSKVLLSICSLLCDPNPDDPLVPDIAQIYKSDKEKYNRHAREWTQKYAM

effect of a mutation on the interaction: disrupting interaction
Substance: Ubiquitin-conjugating enzyme E2 D1 (Homo sapiens), P51668 D87A
